Measurements: patent US20210371529A1 (Innovent, published 2021)

T1: LAG-3 on activated human CD4+ T cells (human, UniProt P18627 23-525)
T1 construct: whole, on cells; also called endogenous LAG-3
T1 sequence (looked up): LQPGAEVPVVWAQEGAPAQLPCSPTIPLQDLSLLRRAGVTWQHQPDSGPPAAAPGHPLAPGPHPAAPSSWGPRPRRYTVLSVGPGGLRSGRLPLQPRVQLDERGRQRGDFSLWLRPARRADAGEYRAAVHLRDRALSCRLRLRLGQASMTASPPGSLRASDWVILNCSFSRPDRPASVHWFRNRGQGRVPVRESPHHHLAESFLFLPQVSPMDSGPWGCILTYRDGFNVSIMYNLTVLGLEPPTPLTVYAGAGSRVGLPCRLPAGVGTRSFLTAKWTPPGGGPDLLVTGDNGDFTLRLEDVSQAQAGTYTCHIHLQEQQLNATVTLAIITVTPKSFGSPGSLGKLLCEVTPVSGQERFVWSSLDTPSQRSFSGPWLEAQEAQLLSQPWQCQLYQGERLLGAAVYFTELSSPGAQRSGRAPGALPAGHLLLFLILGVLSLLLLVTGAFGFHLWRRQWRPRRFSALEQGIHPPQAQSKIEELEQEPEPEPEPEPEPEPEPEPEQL

T2: mouse LAG-3 overexpressed on CHO cells (mouse, UniProt Q61790 24-521)
T2 construct: whole, on cells; also called CHO-mLAG-3 cells; mouse LAG-3 on the cell surface
T2 sequence (looked up): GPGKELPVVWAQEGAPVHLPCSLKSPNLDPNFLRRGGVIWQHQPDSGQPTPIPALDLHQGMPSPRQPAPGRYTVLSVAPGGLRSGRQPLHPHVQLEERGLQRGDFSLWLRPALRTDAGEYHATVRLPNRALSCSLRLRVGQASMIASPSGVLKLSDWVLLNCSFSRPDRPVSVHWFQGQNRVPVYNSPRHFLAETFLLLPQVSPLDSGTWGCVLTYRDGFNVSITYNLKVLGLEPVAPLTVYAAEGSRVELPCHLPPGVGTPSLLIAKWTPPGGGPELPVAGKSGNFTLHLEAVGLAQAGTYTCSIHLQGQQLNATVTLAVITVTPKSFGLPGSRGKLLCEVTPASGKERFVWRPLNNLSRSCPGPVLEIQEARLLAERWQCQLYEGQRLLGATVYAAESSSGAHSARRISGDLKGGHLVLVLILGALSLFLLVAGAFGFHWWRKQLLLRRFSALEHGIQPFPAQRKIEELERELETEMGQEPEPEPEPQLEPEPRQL


Legend:
[1] = biological target: T1, LAG-3 on activated human CD4+ T cells; test: flow cytometry on activated human CD4+ T cells, MFI curve
Method: CD4+ T cell isolation: This was performed according to the ‘Untouched CD4+ T cell isolation’ kit instructions (11346D, Invitrogen). PBMCs were left for 2 h before the cell suspension was pipetted into a 15-mL centrifugation tube. The cells were centrifuged at 200 g for 10 min, and the precipitate was resuspended with 500 μL of a separating medium, 100 μL of AB type serum and 100 μL of purified antibody. The mixture was incubated for 20 min at 4° C., and washed once with the separating medium. 500 μL of a Bead Buffer (Invitrogen) was added for an incubation of 15 min, and the beads were then removed by a magnetic field. The mixture was washed once with a T cell culture medium, and resuspended with 8 mL of a culture medium. The resulting mixture was then incubated at 37° C. in presence of 6% CO₂.
According to the ratio of magnetic beads to CD4⁺ T cells equivalent to 1:1, anti-CD3/CD28 magnetic beads (Gibco) were added to CD4⁺ T cells for stimulation for 3 days. The cell density was adjusted to 1×10⁶/mL. The cells were loaded into a first well, 150 μL/well, and into other wells, 100 μL/well. […] The samples were mixed well. […] The mixture was resuspended in 60 μL of PBS and analyzed by flow cytometry. The flow cytometry was performed on an Accuri C6 system (BD Biosciences), and a concentration-dependent curve was fitted with GraphPad according to the mean fluorescence intensity (MFI).

[2] = biological target: T2, mouse LAG-3 overexpressed on CHO cells; test: flow cytometry (MFI) on CHO cells overexpressing mouse LAG-3; value from the EC50 table on the sheet, which has no unit of its own (concentration axis in nM); the curve has no plateau
Method: (§1) The cells were incubated on ice for 30 min. The cells were then washed at least twice prior to addition of a secondary antibody (a PE-labeled goat anti-human IgG antibody, Southern Biotech, final concentration […]) diluted in 1:100, and incubated on ice (protected from light) for 30 minutes. The cells were washed at least twice and analyzed by flow cytometry. The flow cytometry assay was performed on an Accuri C6 system (BD Biosciences), and a concentration-dependent curve was fitted with GraphPad according to the mean fluorescence intensity (MFI).

[3] = biological target: T2, mouse LAG-3 overexpressed on CHO cells; test: flow cytometry on CHO-mLAG-3 cells, MFI curve
Method: as §1

| EC50 [1] [nM] | EC50 [2] [µM] | EC50 [3] [nM] | Binder |
| --- | --- | --- | --- |
| 0.013 | ~12.1 |  | ADI-31851 (antibody, human IgG4 S228P, kappa, F234A L235A, V domains shown, IgG4 heavy chain constant region with kappa light chain; expressed in HEK293 cells) VH: QLQLQESGPGLVKPSETLSLTCTVSGGSISSPDYYWGWIRQPPGKGLEWIGSIVYSGYTYYNPSLKSRVTISVDTSKNQFSLKLSSVTAADTAVYYCARVRTWDQSFDIWGQGTMVTVSS VL: DIQMTQSPSSLSASVGDRVTITCQAGQDISNYLNWYQQKPGKAPKLLIYDASNLETGVPSRFSGSGSGTDFTFTISSLQPEDIATYYCQQVLELPPWTFGGGTKVEIKR |
| 0.011 |  | 42.3 | ADI-31853 (antibody, human IgG4 S228P, kappa, F234A L235A, V domains shown, IgG4 heavy chain constant region with kappa light chain; expressed in HEK293 cells) VH: QLQLQESGPGLVKPSETLSLTCTVSGGSIYSESYYWGWIRQPPGKGLEWIGSIVYSGYTYYNPSLKSRVTISVDTSKNQFSLKLSSVTAADTAVYYCARVRTWDAAFDIWGQGTMVTVSS VL: DIQMTQSPSSLSASVGDRVTITCQASQDISNYLNWYQQKPGKAPKLLIYDASNLETGVPSRFSGSGSGTDFTFTISSLQPEDIATYYCQQVLELPPWTFGGGTKVEIKR |
